Test results published in the supplement of paper PMC7125110.
± gives the standard error. Fewer inactive variants are shown than the library holds.

B1: glmS ribozyme (parent)
chain: AUAAAAGCGCCAGAACUACAGAAAUGUAGUUGACGAGGAGGAGGUUUAUCGAAUUUUCGGCGGAUGCCUCCAAA

Legend:
Conditions in all cases: with glucosamine-6-phosphate
glucosamine-6-phosphate [1] = variants of: B1; assay: self-cleavage kobs at 40 uM GlcN6P; higher = faster cleavage; RNA array
How it was run: (§1)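 The measurements used barcoded ribozyme variants on sequenced MiSeq chips, transcribed in situ by E. coli RNA polymerase and tracked at 37 °C with a hybridised Cy3 probe. Glucosamine-6-phosphate, 40 μM to 10 mM in HEPES/KCl/Mg(OAc)2 buffer, was flowed in while tiles were imaged over ~14 h. Baseline-normalised signals, also normalised to non-cleaving reference variants, gave per-tile medians that were fit to one- or two-exponential decays for kobs. kcat and KM resulted from weighted Michaelis–Menten fits across concentrations.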

glucosamine-6-phosphate [2] = variants of: B1; assay: self-cleavage kobs at 160 uM GlcN6P; higher = faster cleavage; RNA array
How it was run: as §1

glucosamine-6-phosphate [3] = variants of: B1; assay: self-cleavage kobs at 2500 uM GlcN6P; higher = faster cleavage; RNA array
How it was run: as §1

glucosamine-6-phosphate [4] = variants of: B1; assay: self-cleavage kobs at 10000 uM GlcN6P; higher = faster cleavage; RNA array
How it was run: as §1

glucosamine-6-phosphate [5] = variants of: B1; assay: self-cleavage kobs at 640 uM GlcN6P; higher = faster cleavage; RNA array
How it was run: as §1

Variant	self-cleavage kobs at 40 uM GlcN6P (glucosamine-6-phosphate [1]) [s⁻¹]	self-cleavage kobs at 160 uM GlcN6P (glucosamine-6-phosphate [2]) [s⁻¹]	self-cleavage kobs at 2500 uM GlcN6P (glucosamine-6-phosphate [3]) [s⁻¹]	self-cleavage kobs at 10000 uM GlcN6P (glucosamine-6-phosphate [4]) [s⁻¹]	self-cleavage kobs at 640 uM GlcN6P (glucosamine-6-phosphate [5]) [s⁻¹]
G51A A64C	< 1e-05	< 1e-05	< 1e-05	< 1e-05	
G62C A64G	< 1e-05			< 1e-05	< 1e-05
C8U U55A C58A	< 1e-05			< 1e-05	< 1e-05
U47C G59U C70A	< 1e-05				
A42U G51U	< 1e-05	< 1e-05		< 1e-05	< 1e-05
C34U C61A C67G	0.00044 ± 0.00014				0.000318 ± 0.00013
A14G C16U U45G C67U	0.00026 ± 6.6e-05	0.000132 ± 3e-05	0.00988 ± 0.0035		0.00248 ± 0.0012
G13C A33U A39G U47C C61U	< 1e-05				
G13A U45C A64G	< 1e-05				
G9U A33C A36C U46C C68G	< 1e-05			< 1e-05	
C8G A48G U54A	< 1e-05		< 1e-05	< 1e-05	
G40U G63C	< 1e-05	< 1e-05	< 1e-05	< 1e-05	< 1e-05
G35C G63A	< 1e-05	< 1e-05		< 1e-05	< 1e-05
A6G C50G	0.000151 ± 3.1e-05	9.76e-05 ± 3.1e-05	0.000106 ± 3.4e-05	3.84e-05 ± 1.3e-05	0.000503 ± 0.00012
G41C U69A	< 1e-05	< 1e-05			< 1e-05
C11A A14G A52C G63A	< 1e-05				
C16A G37C A48U U49C A52G G62C	< 1e-05			< 1e-05	
A52U G59A	< 1e-05	< 1e-05	< 1e-05	< 1e-05	< 1e-05
G13A C50G U55G U57G G62U	8.98e-05 ± 2.1e-05			5.32e-05 ± 1.5e-05	
C16A A36G	< 1e-05	< 1e-05		< 1e-05	< 1e-05
U30A G44A	< 1e-05	< 1e-05		4.03e-05 ± 8.7e-06	
G37C U46A	< 1e-05	< 1e-05		< 1e-05	< 1e-05
G7U G9C C11G A12C U55A	< 1e-05			< 1e-05	

Variant	self-cleavage kobs at 40 uM GlcN6P (glucosamine-6-phosphate [1]) [s⁻¹]	self-cleavage kobs at 160 uM GlcN6P (glucosamine-6-phosphate [2]) [s⁻¹]	self-cleavage kobs at 2500 uM GlcN6P (glucosamine-6-phosphate [3]) [s⁻¹]	self-cleavage kobs at 10000 uM GlcN6P (glucosamine-6-phosphate [4]) [s⁻¹]	self-cleavage kobs at 640 uM GlcN6P (glucosamine-6-phosphate [5]) [s⁻¹]
A36C C58A U65A C68G	0.000139 ± 4.3e-05		0.000116 ± 2.7e-05		
C11A A53U U57G C71A	0.000108 ± 2.7e-05		0.000141 ± 6.7e-05	9.23e-05 ± 2.2e-05	0.000248 ± 7.4e-05
G9U G29C U30C	< 1e-05	< 1e-05	< 1e-05	< 1e-05	< 1e-05
C10G G37A	< 1e-05	< 1e-05		< 1e-05	< 1e-05
G37U G60A	< 1e-05				< 1e-05
A39C C50G A52C	< 1e-05				
G9U A48G	< 1e-05	< 1e-05		< 1e-05	< 1e-05
C10A A14C U45C C68U	< 1e-05		< 1e-05	< 1e-05	< 1e-05
A48U G59A	< 1e-05	< 1e-05	< 1e-05	< 1e-05	< 1e-05
A14G A15U C67G	5.43e-05 ± 1.3e-05			0.0027 ± 0.00046	
G40A C50G G66C	0.00112 ± 0.00049			0.00127 ± 0.00049	
A33U A53U C61A U69A	< 1e-05				
C50A A53C	< 1e-05				
A52U G62A	< 1e-05		< 1e-05	< 1e-05	< 1e-05
G41C G51A A52U C67A	< 1e-05			< 1e-05	
G9U C10G A48C A52G	< 1e-05				
G9A C58U C61G	< 1e-05			< 1e-05	
G62A C67A	< 1e-05			< 1e-05	
A14G G37A G63U	< 1e-05			< 1e-05	
C34U U45A	< 1e-05	< 1e-05	< 1e-05	< 1e-05	< 1e-05
C16U G40A G62A U69A	< 1e-05				
C11U A14U G43U U54A G63A	< 1e-05		< 1e-05		
U55C C68A	< 1e-05	< 1e-05	< 1e-05		< 1e-05
